Data on one molecule can be found in patent US20240034813A1 (Janssen / Centocor, published 2024).

For assay [1], the target named is T1, recombinant cMet/HGFR with c-terminal His-tag, Cy5-labeled (UniProt P08581 25-932, limits assumed, Cy5 label (reacted with Cy5 Mono NHS Ester; sites not stated)).
T1 construct: Commercial protein; also called Cy5-c-MET; Cy5-labeled c-MET antigen; not shown: C-terminal His-tag
The assay is described as follows: competitive TR-FRET (Eu-amivantamab/Cy5-c-MET), EC50 ratio vs Reference Material; Ex. 11 drug product, 6 months at 5 C. The text has this:
(§1) In this procedure, varying concentrations of unlabeled bispecific EGFR-cMet antibody sample compete with donor fluorophore (Europium (Eu) chelate) labeled bispecific EGFR-cMet antibody for binding to an acceptor fluorophore (Cy5)-labeled c-MET antigen. Excitation of the donor fluorophore results in a transfer of energy to the bound acceptor fluorophore (FRET process). The resultant FRET is detected by emission of light at 665 nm using a microplate reader capable of measuring time-resolved fluorescence. Sample dose response curves are compared to the Reference Material (RM).
(§2) c-MET Binding Materials and Methods. Certified commercial cMet, a recombinant cMet/HGFR with c-terminal His-tag is reacted with certified commercial Cy5 Mono NHS Ester to produce Cy5-labeled c-MET. Validated bispecific EGFR-cMet antibody is reacted with certified commercial Europium (Eu) chelate to produce Eu labeled bispecific EGFR-cMet antibody. […] Fluorescence is then measured by spectrophotometry at 665 nm, plotted against antibody concentration and analyzed by a four-parameter logistic model. The antibody concentration required to obtain half of the maximum fluorescence response (EC50) is determined for RM, assay control and samples. The potencies of assay control and samples are calculated based on the ratio of the sample (or control) and RM EC50 values and reported as a percentage activity relative to the RM.

For assay [2], the target named is T1, recombinant cMet/HGFR with c-terminal …. The experiment in a line: competitive TR-FRET (Eu-amivantamab/Cy5-c-MET), EC50 ratio vs Reference Material; Ex. 2 Formulation 3 (acetate), 1 month at 40 C.
From the text: as §1, §2
In general terms: In TR-FRET formats the signal depends on donor and acceptor labels being close together.

Assay [3] shares this target. The assay is described as follows: competitive TR-FRET (Eu-amivantamab/Cy5-c-MET), EC50 ratio vs Reference Material; Ex. 2 Formulation 3 (acetate), 3 months at 25 C.
From the text: as §1, §2

The target is the same in assay [4]. The assay is described as follows: competitive TR-FRET (Eu-amivantamab/Cy5-c-MET), EC50 ratio vs Reference Material; Ex. 12 drug product with rHuPH20, 1 month at 40 C.
From the text: as §1, §2

The target in assay [5] is T2, recombinant human EGFR/ErbB1/HER1 with C-terminal His tag, Cy5-labeled (human, UniProt P00533 25-645, Cy5 label (reacted with Cy5 Mono NHS Ester; sites not stated)).
T2 construct: Commercial protein; also called Cy5-EGFR; Cy5-labeled EGFR antigen; not shown: C-terminal His tag
The assay is described as follows: competitive TR-FRET (Eu-amivantamab/Cy5-EGFR), EC50 ratio vs Reference Material; Ex. 2 Formulation 2 (50 mM histidine), T0, 5 C table.
From the text: (§3) In this procedure, varying concentrations of unlabeled bispecific EGFR-cMet antibody sample compete with donor fluorophore (Europium (Eu) chelate) labeled bispecific EGFR-cMet antibody for binding to an acceptor fluorophore (Cy5)-labeled EGFR antigen. Excitation of the donor fluorophore results in a transfer of energy to the bound acceptor fluorophore (FRET process). The resultant FRET is detected by emission of light at 665 nm using a microplate reader capable of measuring time-resolved fluorescence. Sample dose response curves are compared to the RM.
as §2, with “EGFR” for “c-MET”, “EGFR,” for “cMet,”, “human EGFR/ErbB1/HER1” for “cMet/HGFR”, “C-terminal His tag” for “c-terminal His-tag”, “EGFR.” for “c-MET.”, “Eu-labeled” for “Eu labeled”

Assay [6] concerns the target T1, recombinant cMet/HGFR with c-terminal …. The experiment in a line: competitive TR-FRET (Eu-amivantamab/Cy5-c-MET), EC50 ratio vs Reference Material; Ex. 2 Formulation 2 (50 mM histidine), 3 months at 5 C.
From the text: as §1, §2

Assay [7] deals with T2, recombinant human EGFR/ErbB1/HER1 with …. The experiment in a line: competitive TR-FRET (Eu-amivantamab/Cy5-EGFR), EC50 ratio vs Reference Material; Ex. 2 Formulation 1 (10 mM histidine), 3 months at 25 C.
From the text: as §3
as §2, with “EGFR” for “c-MET”, “EGFR,” for “cMet,”, “human EGFR/ErbB1/HER1” for “cMet/HGFR”, “C-terminal His tag” for “c-terminal His-tag”, “EGFR.” for “c-MET.”, “Eu-labeled” for “Eu labeled”

In assay [8] the target is T1, recombinant cMet/HGFR with c-terminal …. The experiment in a line: competitive TR-FRET (Eu-amivantamab/Cy5-c-MET), EC50 ratio vs Reference Material; Ex. 3 acetate formulation, 6 months at 25 C then 5 freeze/thaw cycles.
From the text: as §1, §2

B1: amivantamab (bispecific antibody, human IgG1, kappa)
heavy 1: not shown
light 1: not shown
heavy 2: not shown
light 2: DIQMTQSPSSVSASVGDRVTITCRASQGISNWLAWFQHKPGKAPKLLIYAASSLLSGVPSRFSGSGSGTDFTLTISSLQPEDFATYYCQQANSFPITFGQGTRLEIKRTVAAPSVFIFPPSDEQLKSGTASVVCLLNNFYPREAKVQWKVDNALQSGNSQESVTEQDSKDSTYSLSSTLTLSKADYEKHKVYACEVTHQGLSSPVTKSFNRGEC
notes: The samples tested were high concentration (160 mg/mL) formulations, fresh or stored or stressed; also called JNJ-61186372; bispecific EGFR-cMet antibody
As for B1, the “cMET Binding activity relative to Reference Material (%)” value is 86% in assay [1] and 81% in assay [4]. The “cMET Binding % activity relative to RM” value is 100% in assay [2], 105% in assay [3], 98% in assay [6] and 84% in assay [8]. Also, the “EGFR Binding % activity relative to RM” value worked out at 103% in assay [5] and 100% in assay [7].
